According to paper PMC3402478, “ADP Ribosylation by PARP-1 Suppresses HOXB7 Transcriptional Activity”:

Key:
[1] = target: PARP-1 (purified, Trevigen) (UniProt P09874 1-1014); test: EMSA; EMSA: 50 mM Tris-HCl pH 7.5, 50 mM NaCl, 1 mM MgCl2, 0.5 mM DTT, 4% glycerol, 0.5 mM EDTA, 0.25 mg/ml poly(dI-dC), 20 min, gel at room temperature; ONP: 60 mM KCl, 12 mM HEPES pH 7.9, 4 mM Tris-HCl, 5% glycerol, 0.5 mM EDTA, 1 mM DTT, 4 C, 3 h; conditions: protein: commercial; label: 32P; blunt
GST-HOXB7 = GST-HOXB7 (UniProt P09629 1-217); test: EMSA; no PARP-1; competed by 100-fold unlabeled probe; EMSA: 50 mM Tris-HCl pH 7.5, 50 mM NaCl, 1 mM MgCl2, 0.5 mM DTT, 4% glycerol, 0.5 mM EDTA, 0.25 mg/ml poly(dI-dC), 20 min, gel at room temperature; ONP: 60 mM KCl, 12 mM HEPES pH 7.9, 4 mM Tris-HCl, 5% glycerol, 0.5 mM EDTA, 1 mM DTT, 4 C, 3 h; conditions: protein: recombinant; tags: GST; label: 32P; blunt
Chain of GST-HOXB7 (P09629 whole entry): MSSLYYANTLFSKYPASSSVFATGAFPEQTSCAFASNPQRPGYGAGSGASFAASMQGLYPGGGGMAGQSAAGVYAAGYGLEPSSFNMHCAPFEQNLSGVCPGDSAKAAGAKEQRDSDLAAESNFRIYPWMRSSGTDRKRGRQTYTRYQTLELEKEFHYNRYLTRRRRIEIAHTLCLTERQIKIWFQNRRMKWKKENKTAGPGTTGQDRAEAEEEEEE

Chain of PARP-1 (purified, Trevigen) (P09874 whole entry): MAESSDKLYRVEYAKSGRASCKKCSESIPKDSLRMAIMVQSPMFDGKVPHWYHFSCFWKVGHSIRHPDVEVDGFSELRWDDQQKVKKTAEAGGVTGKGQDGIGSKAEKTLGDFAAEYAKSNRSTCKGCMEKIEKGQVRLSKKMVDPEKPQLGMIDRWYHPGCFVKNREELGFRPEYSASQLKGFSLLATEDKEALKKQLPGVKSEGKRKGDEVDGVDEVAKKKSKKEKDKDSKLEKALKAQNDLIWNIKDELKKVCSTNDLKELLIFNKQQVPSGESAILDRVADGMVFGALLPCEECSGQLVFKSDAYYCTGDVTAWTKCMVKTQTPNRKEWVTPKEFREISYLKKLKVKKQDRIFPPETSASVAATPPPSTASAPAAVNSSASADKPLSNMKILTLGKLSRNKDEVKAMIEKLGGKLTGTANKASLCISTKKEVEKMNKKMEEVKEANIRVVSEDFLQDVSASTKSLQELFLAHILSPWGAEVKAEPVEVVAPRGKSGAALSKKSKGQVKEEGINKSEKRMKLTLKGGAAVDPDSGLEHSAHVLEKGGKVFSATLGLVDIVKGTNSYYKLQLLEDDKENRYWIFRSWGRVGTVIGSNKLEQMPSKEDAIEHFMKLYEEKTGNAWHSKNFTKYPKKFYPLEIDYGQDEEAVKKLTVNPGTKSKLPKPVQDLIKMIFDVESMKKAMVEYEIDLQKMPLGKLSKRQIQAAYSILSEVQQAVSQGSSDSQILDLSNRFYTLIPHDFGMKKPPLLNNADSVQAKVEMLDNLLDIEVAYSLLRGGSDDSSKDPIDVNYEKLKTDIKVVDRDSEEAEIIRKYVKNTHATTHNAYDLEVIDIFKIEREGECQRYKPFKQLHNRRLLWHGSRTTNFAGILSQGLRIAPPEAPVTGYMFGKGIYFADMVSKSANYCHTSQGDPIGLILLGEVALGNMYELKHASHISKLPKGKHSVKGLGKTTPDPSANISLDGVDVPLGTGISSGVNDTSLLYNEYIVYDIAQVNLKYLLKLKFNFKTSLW

B1: HBS EMSA probe (dsDNA)
DNA 1: AAATATCAATTAAATCTTAATTATAA
DNA 2: TTATAATTAAGATTTAATTGATATTT
B1: no binding [1]; binds (GST-HOXB7).
